Reference: paper PMC12209146
“And” between values parts separate entries of the source, which are not always exact repeats. Equal entries are not always repeated.

Target: toxin B (TcdB) from Clostridioides difficile VPI 10,463 (Clostridioides difficile VPI 10,463) (UniProt P18177)
Sequence (P18177 whole entry): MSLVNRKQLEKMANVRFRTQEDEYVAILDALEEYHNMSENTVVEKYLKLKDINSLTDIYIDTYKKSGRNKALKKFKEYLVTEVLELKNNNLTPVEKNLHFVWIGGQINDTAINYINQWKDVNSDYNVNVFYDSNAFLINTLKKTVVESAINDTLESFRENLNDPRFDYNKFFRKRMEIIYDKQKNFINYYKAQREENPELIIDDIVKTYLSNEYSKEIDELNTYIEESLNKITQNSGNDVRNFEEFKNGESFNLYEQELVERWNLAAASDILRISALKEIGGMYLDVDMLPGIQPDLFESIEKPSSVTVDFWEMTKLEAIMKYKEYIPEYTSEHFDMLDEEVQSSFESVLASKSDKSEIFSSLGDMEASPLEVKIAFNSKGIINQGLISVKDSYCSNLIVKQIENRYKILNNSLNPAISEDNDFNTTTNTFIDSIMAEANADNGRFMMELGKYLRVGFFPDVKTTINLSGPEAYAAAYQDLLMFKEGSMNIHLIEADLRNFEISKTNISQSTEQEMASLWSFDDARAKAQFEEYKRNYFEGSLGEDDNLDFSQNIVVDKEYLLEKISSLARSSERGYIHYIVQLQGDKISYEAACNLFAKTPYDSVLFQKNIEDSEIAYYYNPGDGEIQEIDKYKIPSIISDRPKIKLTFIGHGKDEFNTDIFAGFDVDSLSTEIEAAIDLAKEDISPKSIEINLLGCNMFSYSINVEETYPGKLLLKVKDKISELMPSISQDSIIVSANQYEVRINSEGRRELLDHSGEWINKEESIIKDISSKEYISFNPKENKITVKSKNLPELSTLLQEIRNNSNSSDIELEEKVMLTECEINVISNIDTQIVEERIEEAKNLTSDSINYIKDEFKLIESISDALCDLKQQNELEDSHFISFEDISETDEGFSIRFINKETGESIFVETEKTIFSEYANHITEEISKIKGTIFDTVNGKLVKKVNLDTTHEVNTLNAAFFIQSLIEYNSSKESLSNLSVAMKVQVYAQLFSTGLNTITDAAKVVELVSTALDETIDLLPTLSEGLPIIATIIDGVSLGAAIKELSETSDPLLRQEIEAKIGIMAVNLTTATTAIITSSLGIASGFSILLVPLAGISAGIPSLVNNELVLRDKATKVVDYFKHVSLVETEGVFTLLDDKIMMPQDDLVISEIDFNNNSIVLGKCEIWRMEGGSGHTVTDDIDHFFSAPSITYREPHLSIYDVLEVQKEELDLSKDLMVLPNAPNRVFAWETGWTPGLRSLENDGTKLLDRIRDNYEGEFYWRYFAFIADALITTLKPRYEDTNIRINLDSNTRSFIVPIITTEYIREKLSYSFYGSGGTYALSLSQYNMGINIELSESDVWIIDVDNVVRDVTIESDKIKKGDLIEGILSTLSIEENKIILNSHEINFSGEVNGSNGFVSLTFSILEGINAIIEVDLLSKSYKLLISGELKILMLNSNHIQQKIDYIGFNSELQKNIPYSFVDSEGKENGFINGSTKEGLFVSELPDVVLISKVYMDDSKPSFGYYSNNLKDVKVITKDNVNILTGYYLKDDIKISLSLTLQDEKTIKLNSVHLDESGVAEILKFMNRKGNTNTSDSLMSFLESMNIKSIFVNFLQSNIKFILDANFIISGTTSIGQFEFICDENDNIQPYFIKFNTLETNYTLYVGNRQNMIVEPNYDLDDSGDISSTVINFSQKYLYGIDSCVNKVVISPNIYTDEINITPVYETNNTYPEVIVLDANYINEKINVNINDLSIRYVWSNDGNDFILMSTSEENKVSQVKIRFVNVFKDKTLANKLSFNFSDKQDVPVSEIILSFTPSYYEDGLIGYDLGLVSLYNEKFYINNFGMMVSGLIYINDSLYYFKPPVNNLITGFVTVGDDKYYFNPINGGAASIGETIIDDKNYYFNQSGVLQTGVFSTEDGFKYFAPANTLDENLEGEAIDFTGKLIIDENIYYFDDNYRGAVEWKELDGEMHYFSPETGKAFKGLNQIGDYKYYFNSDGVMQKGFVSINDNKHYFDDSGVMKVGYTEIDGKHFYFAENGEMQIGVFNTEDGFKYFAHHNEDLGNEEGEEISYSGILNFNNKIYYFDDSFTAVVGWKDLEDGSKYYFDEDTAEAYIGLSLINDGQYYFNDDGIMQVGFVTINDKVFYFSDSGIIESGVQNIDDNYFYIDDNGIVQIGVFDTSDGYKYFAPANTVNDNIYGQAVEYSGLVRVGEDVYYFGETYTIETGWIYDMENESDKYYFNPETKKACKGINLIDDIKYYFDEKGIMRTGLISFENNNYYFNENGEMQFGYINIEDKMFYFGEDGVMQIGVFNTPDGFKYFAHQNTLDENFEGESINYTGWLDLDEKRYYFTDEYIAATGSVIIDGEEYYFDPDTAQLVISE

KFINIFIHGNKRSIKAI [Angie 5]
other: 40.9 µM and 46.3 µM
